B1: N-terminal GFP-tagged N-terminal truncated human SOAT1 (66-550) (domain or fragment, UniProt P35610 66-550, looked up)
chain: MKEVGSHFDDFVTNLIEKSASLDNGGCALTTFSVLEGEKNNHRAKDLRAPPEQGKIFIARRSLLDELLEVDHIRTIYHMFIALLILFILSTLVVDYIDEGRLVLEFSLLSYAFGKFPTVVWTWWIMFLSTFSVPYFLFQHWATGYSKSSHPLIRSLFHGFLFMIFQIGVLGFGPTYVVLAYTLPPASRFIIIFEQIRFVMKAHSFVRENVPRVLNSAKEKSSTVPIPTVNQYLYFLFAPTLIYRDSYPRNPTVRWGYVAMKFAQVFGCFFYVYYIFERLCAPLFRNIKQEPFSARVLVLCVFNSILPGVLILFLTFFAFLHCWLNAFAEMLRFGDRMFYKDWWNSTSYSNYYRTWNVVVHDWLYYYAYKDFLWFFSKRFKSAAMLAVFAVSAVVHEYALAVCLSFFYPVLFVLFMFFGMAFNFIVNDSRKKPIWNVLMWTSLFLGNGVLLCFYSQEWYARQHCPLKNPTFLDYVRPRSWTCRYVF
notes: human sterol O-acyltransferase 1 (SOAT1), residues 66-550 (N-terminal tetramerization domain deleted); also called hSOAT1 dimer; SOAT1-dimer (66-550); source: HEK293F, transfected, solubilized with 1% GDN (supernatant, not purified); not shown: GFP, N-terminal, kept
B2: human SOAT1 dimer construct (66-550), purified, tags removed (domain or fragment, UniProt P35610 66-550, looked up)
chain: B1 chain
notes: human sterol O-acyltransferase 1 (SOAT1), residues 66-550; residues 66-117 invisible in the map; Reconstituted into MSP2X nanodiscs; also called hSOAT1 dimer; hSOAT1 66-550; source: HEK293F, BacMam infected, purified (strep-tactin, PreScission, superose-6); not shown: His7, N-terminal, cleaved; strep, N-terminal, cleaved; GFP, N-terminal, cleaved
B3: N-terminal GFP-tagged full-length human SOAT1 (1-550) (enzyme, UniProt P35610 1-550, looked up)
chain: MVGEEKMSLRNRLSKSRENPEEDEDQRNPAKESLETPSNGRIDIKQLIAKKIKLTAEAEELKPFFMKEVGSHFDDFVTNLIEKSASLDNGGCALTTFSVLEGEKNNHRAKDLRAPPEQGKIFIARRSLLDELLEVDHIRTIYHMFIALLILFILSTLVVDYIDEGRLVLEFSLLSYAFGKFPTVVWTWWIMFLSTFSVPYFLFQHWATGYSKSSHPLIRSLFHGFLFMIFQIGVLGFGPTYVVLAYTLPPASRFIIIFEQIRFVMKAHSFVRENVPRVLNSAKEKSSTVPIPTVNQYLYFLFAPTLIYRDSYPRNPTVRWGYVAMKFAQVFGCFFYVYYIFERLCAPLFRNIKQEPFSARVLVLCVFNSILPGVLILFLTFFAFLHCWLNAFAEMLRFGDRMFYKDWWNSTSYSNYYRTWNVVVHDWLYYYAYKDFLWFFSKRFKSAAMLAVFAVSAVVHEYALAVCLSFFYPVLFVLFMFFGMAFNFIVNDSRKKPIWNVLMWTSLFLGNGVLLCFYSQEWYARQHCPLKNPTFLDYVRPRSWTCRYVF
notes: human sterol O-acyltransferase 1 (SOAT1), full-length, residues 1-550; BacMam vector with N-terminal His7-strep-GFP tags; detected by GFP fluorescence in FSEC; also called hSOAT1; sterol O-acyltransferase 1; source: solubilized in detergent micelles; not shown: GFP, N-terminal, kept
B4: human SOAT1 full-length (1-550), purified, tags removed (enzyme, UniProt P35610 1-550, looked up)
chain: B3 chain
notes: human sterol O-acyltransferase 1 (SOAT1), full-length, residues 1-550; Studied in digitonin/GDN micelles and in MSP2N2 nanodiscs with soybean polar lipids; also called hSOAT1; hSOAT1 tetramer; source: HEK293F, BacMam infected, purified (strep-tactin, PreScission, superose-6); not shown: His7, N-terminal, cleaved; strep, N-terminal, cleaved; GFP, N-terminal, cleaved

How the values were obtained:
[1] = molecular target: the molecule itself; assay: SEC; fluorescence-detection SEC (FSEC) of N-terminal GFP-tagged hSOAT1 solubilized in detergent micelles; elution compared with dimeric mouse TPC1 (189 kDa)
[2] = molecular target: the molecule itself; assay: cryo-EM structure; hSOAT1 66-550 in nanodisc (MSP2X) with inhibitor CI-976; 3.5 Å, C2 symmetry
[3] = molecular target: the molecule itself; assay: cryo-EM structure; hSOAT1 full length in detergent micelles with CI-976; one 3D class refined to 12 Å

| Protein | stoichiometry N [1] | also measured |
| --- | --- | --- |
| B1 | 2 | – |
| B2 | – | stoichiometry N [2]: 2 |
| B3 | 4 | – |
| B4 | – | stoichiometry N [3]: 4 |

— PMC7234994, “Structural insights into the inhibition mechanism of human sterol O-acyltransferase 1 by a competitive inhibitor” (Nature Communications, 2020)
